Each block holds one molecule with its values, some of them ahead of it.
Columns and labels:
[1] = molecular target: Factor VIII:C Mr 80 K polypeptide (FVIII-LC) encoded by pSVF8-80 (human) (UniProt P00451)
[2] = molecular target: Factor VIII:C Mr 80 K polypeptide (FVIII-LC) encoded by pSVF8-80 (human) (UniProt P00451); remark: listed apart in the source
[3] = molecular target: Factor VIII:C Mr 80 K polypeptide (FVIII-LC) encoded by pSVF8-80 (human) (UniProt P00451); remark: listed apart in the source
[4] = molecular target: Factor VIII:C Mr 80 K polypeptide (FVIII-LC) encoded by pSVF8-80 (human) (UniProt P00451); remark: listed apart in the source
[5] = molecular target: Factor VIII:C Mr 80 K polypeptide (FVIII-LC) encoded by pSVF8-80 (human) (UniProt P00451); remark: listed apart in the source
[6] = molecular target: Factor VIII:C Mr 80 K polypeptide (FVIII-LC) encoded by pSVF8-80 (human) (UniProt P00451); remark: listed apart in the source
[7] = molecular target: T1, Factor VIII:C 80 K light chain encoded by pSVF8-80KG (human, UniProt P00451); assay: cell-based or functional assay
T1 chain: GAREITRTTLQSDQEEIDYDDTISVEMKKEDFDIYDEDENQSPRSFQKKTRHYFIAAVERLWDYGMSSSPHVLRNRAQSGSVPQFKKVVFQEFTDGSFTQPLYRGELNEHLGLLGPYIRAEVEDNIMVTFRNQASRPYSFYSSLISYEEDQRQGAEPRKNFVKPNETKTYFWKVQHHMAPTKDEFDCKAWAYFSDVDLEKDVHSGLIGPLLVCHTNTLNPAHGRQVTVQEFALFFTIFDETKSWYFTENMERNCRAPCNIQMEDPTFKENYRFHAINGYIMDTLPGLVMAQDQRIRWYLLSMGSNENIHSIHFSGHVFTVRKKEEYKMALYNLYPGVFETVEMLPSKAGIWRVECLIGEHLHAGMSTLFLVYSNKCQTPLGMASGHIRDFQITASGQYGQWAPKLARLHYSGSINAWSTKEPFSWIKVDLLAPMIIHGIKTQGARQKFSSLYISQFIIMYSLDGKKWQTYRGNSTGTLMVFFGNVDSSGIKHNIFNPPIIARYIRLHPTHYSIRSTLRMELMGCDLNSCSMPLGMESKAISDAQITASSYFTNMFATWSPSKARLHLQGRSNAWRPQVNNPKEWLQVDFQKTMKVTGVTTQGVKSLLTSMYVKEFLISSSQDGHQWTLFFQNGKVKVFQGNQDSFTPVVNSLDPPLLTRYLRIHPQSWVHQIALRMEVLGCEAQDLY

[8] = molecular target: T2, Factor VIII:C 80 K light chain encoded by pSVF8-80S (human, UniProt P00451); assay: cell-based or functional assay
T2 chain: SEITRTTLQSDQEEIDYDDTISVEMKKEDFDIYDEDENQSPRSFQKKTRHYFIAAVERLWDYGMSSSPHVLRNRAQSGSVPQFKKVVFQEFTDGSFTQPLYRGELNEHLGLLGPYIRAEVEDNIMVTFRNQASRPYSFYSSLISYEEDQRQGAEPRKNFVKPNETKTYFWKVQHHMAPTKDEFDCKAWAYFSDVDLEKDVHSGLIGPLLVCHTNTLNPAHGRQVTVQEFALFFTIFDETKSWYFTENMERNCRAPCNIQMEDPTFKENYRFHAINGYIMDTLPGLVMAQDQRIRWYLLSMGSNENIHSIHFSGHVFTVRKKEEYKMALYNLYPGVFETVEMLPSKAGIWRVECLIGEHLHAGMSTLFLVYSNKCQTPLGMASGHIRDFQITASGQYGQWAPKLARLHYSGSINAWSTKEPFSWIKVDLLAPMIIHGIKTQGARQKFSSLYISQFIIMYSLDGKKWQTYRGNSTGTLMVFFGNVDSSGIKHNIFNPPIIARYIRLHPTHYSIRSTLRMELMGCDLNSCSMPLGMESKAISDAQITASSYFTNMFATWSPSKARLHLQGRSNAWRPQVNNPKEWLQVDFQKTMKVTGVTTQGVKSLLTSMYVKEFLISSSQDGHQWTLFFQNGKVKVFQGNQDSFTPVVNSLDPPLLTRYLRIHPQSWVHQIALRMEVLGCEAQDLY

[9] = molecular target: T3, Factor VIII:C 80 K light chain encoded by pSVF8-80A (human, UniProt P00451); assay: cell-based or functional assay
T3 chain: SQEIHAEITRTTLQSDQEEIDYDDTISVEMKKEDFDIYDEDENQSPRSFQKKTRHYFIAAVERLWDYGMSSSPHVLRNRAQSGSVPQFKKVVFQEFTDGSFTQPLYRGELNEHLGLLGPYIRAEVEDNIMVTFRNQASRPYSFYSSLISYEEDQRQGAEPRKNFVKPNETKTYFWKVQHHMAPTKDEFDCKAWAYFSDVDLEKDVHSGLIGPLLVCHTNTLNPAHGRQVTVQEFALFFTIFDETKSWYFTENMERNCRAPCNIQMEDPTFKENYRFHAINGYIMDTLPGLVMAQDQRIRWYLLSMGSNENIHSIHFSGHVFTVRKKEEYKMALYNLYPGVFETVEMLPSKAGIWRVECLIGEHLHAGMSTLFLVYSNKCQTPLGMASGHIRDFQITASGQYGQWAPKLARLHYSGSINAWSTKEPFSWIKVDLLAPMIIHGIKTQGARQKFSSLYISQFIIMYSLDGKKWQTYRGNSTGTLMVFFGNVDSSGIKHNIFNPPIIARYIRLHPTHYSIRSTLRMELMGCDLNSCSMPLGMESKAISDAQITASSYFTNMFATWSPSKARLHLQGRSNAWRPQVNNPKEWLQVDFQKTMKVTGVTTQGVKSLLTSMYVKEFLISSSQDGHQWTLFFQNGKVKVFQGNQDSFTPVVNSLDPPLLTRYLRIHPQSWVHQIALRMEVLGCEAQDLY

[10] = molecular target: Factor VIII:C light chain encoded by pSVF8-80AT (alpha1-antitrypsin signal peptide) (human, UniProt P00451); assay: cell-based or functional assay

Molecule: Factor VIII:C 92 K heavy chain encoded by pSVF8-92C (from UniProt P00451)
mU COATEST/mL (stable CHO cell line 11-D6) [3]: 43 mU/mL | COA (COATEST) mU/mL, cotransfected COS7 cells [2]: 46 mU/mL

Molecule: Factor VIII:C Mr 92 K heavy chain encoded by pSVF8-92E (from UniProt P00451)
COATEST (mU/mL) (stable CHO clone 10C2-D2, 0.05 uM methotrexate) [4]: 496 mU/mL | Factor VIII:C activity of medium of COS7 cells cotransfected with pSVF8-80 [5]: 1.65 fold | ratio of RIA to COATEST activity [1]: 7.2

Molecule: 1323 amino acid Factor VIII:C heavy chain encoded by pSVF8-160 (from UniProt P00451)
ratio of RIA to COATEST activity [1]: 1.8

B1: purified recombinant FVIII:C heavy chains (from full-length human FVIII:C) (other)
chain: ATRRYYLGAVELSWDYMQSDLGELPVDARFPPRVPKSFPFNTSVVYKKTLFVEFTDHLFNIAKPRPPWMGLLGPTIQAEVYDTVVITLKNMASHPVSLHAVGVSYWKASEGAEYDDQTSQREKEDDKVFPGGSHTYVWQVLKENGPMASDPLCLTYSYLSHVDLVKDLNSGLIGALLVCREGSLAKEKTQTLHKFILLFAVFDEGKSWHSETKNSLMQDRDAASARAWPKMHTVNGYVNRSLPGLIGCHRKSVYWHVIGMGTTPEVHSIFLEGHTFLVRNHRQASLEISPITFLTAQTLLMDLGQFLLFCHISSHQHDGMEAYVKVDSCPEEPQLRMKNNEEAEDYDDDLTDSEMDVVRFDDDNSPSFIQIRSVAKKHPKTWVHYIAAEEEDWDYAPLVLAPDDRSYKSQYLNNGPQRIGRKYKKVRFMAYTDETFKTREAIQHESGILGPLLYGEVGDTLLIIFKNQASRPYNIYPHGITDVRPLYSRRLPKGVKHLKDFPILPGEIFKYKWTVTVEDGPTKSDPRCLTRYYSSFVNMERDLASGLIGPLLICYKESVDQRGNQIMSDKRNVILFSVFDENRSWYLTENIQRFLPNPAGVQLEDPEFQASNIMHSINGYVFDSLQLSVCLHEVAYWYILSIGAQTDFLSVFFSGYTFKHKMVYEDTLTLFPFSGETVFMSMENPGLWILGCHNSDFRNRGMTALLKVSSCDKNTGDYYEDSYEDISAYLLSKNNAIEPR
Percent Control Activity (COATEST after in vitro combination of purified chains) [7]: 233 percent of control activity | Percent Control Activity (COATEST after in vitro combination of purified chains) [8]: 51 percent of control activity | Percent Control Activity (COATEST after in vitro combination of purified chains) [9]: 92 percent of control activity | Percent Control Activity (COATEST after in vitro combination of purified chains) [10]: 86 percent of control activity

Further lines, results first:

ratio of RIA to COATEST activity [1]: 1.8
Molecule: 1416 amino acid Factor VIII:C heavy chain encoded by pSVF8-170 (from UniProt P00451)

COA (COATEST) mU/mL, cotransfected COS7 cells [2]: 87 mU/mL
Molecule: Factor VIII:C 92 K heavy chain encoded by pCMVF8-92/6x (from UniProt P00451)

COATEST Activity mU/mL (medium of cotransfected COS7 cells) [6]: 20.4 mU/mL | COATEST Activity mU/mL (supernatants of separate transfectants mixed) [6]: < 0.1 mU/mL | Coagulation Activity mU/mL (one-stage assay, medium of cotransfected COS7 cells) [6]: 22.5 mU/mL | Coagulation Activity mU/mL (supernatants of separate transfectants mixed) [6]: < 0.9 mU/mL
Molecule: Factor VIII:C Mr 92 K polypeptide (FVIII-HC) encoded by pSVF8-92 (from UniProt P00451)
